# Numbered stars: 1 amine (or outer) side, 2 acyl side, 3 side chain; on linkers, the order of the positions; unused ones are H or OH. Square brackets hold non-standard residues; d marks the D form. * marks the point of attachment. octavalent 20 kDa PEG = 20 kDa PEG with eight arms, each linked to one peptide copy through Cys; tetravalent 20 kDa PEG = 20 kDa PEG with four arms, each linked to one peptide copy through Cys; trivalent 20 kDa PEG = 20 kDa PEG with three arms, each linked to one peptide copy through Cys; 20 kDa MeO‑PEG = methoxy-polyethylene glycol of 20 kDa conjugated to the residue side chain; 13C1,2Ac = N-terminal acetyl group labelled with 13C at carbons 1 and 2, [13CH3][13C](=O)*; 15N‑F = phenylalanine labelled with 15N, O=C([C@H](Cc1ccccc1)[15NH][*:1])[*:2]; Cit = NC(=O)NCCC[C@H](N)C(=O)O; 3IPA = not defined here
# B1: SEQ ID NO 779 (peptide)
# peptide: {Ac-3IPA}-VTHRLAGLLSRSGGVVRC(20 kDa MeO‑PEG)NFVPTDVGPFAF-NH2
# modifications: reading uncertain; also: places 3IPA at position 1, printed as Ac-[3IPA]-VTHRLAGLLSRSGGVVRC^(20 kDa MeO-PEG)NFVPTDVGPFAF-amide
# B2: SEQ ID NO 778 (peptide)
# peptide: {Ac-3IPA}-VTHRLAGLLSRSGGVVRCNFVPTDVGPFAF-NH2
# modifications: reading uncertain; also: places 3IPA at position 1, printed as Ac-[3IPA]-VTHRLAGLLSRSGGVVRCNFVPTDVGPFAF-amide
# B3: SEQ ID NO 850 (peptide)
# peptide: Ac-WVTHRLAGLAS[Cit]SGGVVRKNFVPTDVGPFAF-NH2
# SMILES: CC(=O)N[C@@H](Cc1c[nH]c2ccccc12)C(=O)N[C@H](C(=O)N[C@H](C(=O)N[C@@H](Cc1c[nH]cn1)C(=O)N[C@@H](CCCNC(=N)N)C(=O)N[C@@H](CC(C)C)C(=O)N[C@@H](C)C(=O)NCC(=O)N[C@@H](CC(C)C)C(=O)N[C@@H](C)C(=O)N[C@@H](CO)C(=O)N[C@@H](CCCNC(N)=O)C(=O)N[C@@H](CO)C(=O)NCC(=O)NCC(=O)N[C@H](C(=O)N[C@H](C(=O)N[C@@H](CCCNC(=N)N)C(=O)N[C@@H](CCCCN)C(=O)N[C@@H](CC(N)=O)C(=O)N[C@@H](Cc1ccccc1)C(=O)N[C@H](C(=O)N1CCC[C@H]1C(=O)N[C@H](C(=O)N[C@@H](CC(=O)O)C(=O)N[C@H](C(=O)NCC(=O)N1CCC[C@H]1C(=O)N[C@@H](Cc1ccccc1)C(=O)N[C@@H](C)C(=O)N[C@@H](Cc1ccccc1)C(N)=O)C(C)C)[C@@H](C)O)C(C)C)C(C)C)C(C)C)[C@@H](C)O)C(C)C
# B4: SEQ ID NO 776 (peptide)
# peptide: Ac-WVTHRLAGLLS[dR]SGGVVRCNFVPTDVGPFAF-NH2
# SMILES: CC(=O)N[C@@H](Cc1c[nH]c2ccccc12)C(=O)N[C@H](C(=O)N[C@H](C(=O)N[C@@H](Cc1c[nH]cn1)C(=O)N[C@@H](CCCNC(=N)N)C(=O)N[C@@H](CC(C)C)C(=O)N[C@@H](C)C(=O)NCC(=O)N[C@@H](CC(C)C)C(=O)N[C@@H](CC(C)C)C(=O)N[C@@H](CO)C(=O)N[C@H](CCCNC(=N)N)C(=O)N[C@@H](CO)C(=O)NCC(=O)NCC(=O)N[C@H](C(=O)N[C@H](C(=O)N[C@@H](CCCNC(=N)N)C(=O)N[C@@H](CS)C(=O)N[C@@H](CC(N)=O)C(=O)N[C@@H](Cc1ccccc1)C(=O)N[C@H](C(=O)N1CCC[C@H]1C(=O)N[C@H](C(=O)N[C@@H](CC(=O)O)C(=O)N[C@H](C(=O)NCC(=O)N1CCC[C@H]1C(=O)N[C@@H](Cc1ccccc1)C(=O)N[C@@H](C)C(=O)N[C@@H](Cc1ccccc1)C(N)=O)C(C)C)[C@@H](C)O)C(C)C)C(C)C)C(C)C)[C@@H](C)O)C(C)C
# Target: CGRP1 receptor (CRLR/RAMP1 complex) of human neuroblastoma SK-N-MC cells (human, UniProt Q16602 23-461; O60894 27-148)
# Assay: cell-based or functional assay
# Sequence of CGRP1 receptor (CRLR/RAMP1 complex) of human neuroblastoma SK-N-MC cells (Q16602 23-461, chain 1 of 2): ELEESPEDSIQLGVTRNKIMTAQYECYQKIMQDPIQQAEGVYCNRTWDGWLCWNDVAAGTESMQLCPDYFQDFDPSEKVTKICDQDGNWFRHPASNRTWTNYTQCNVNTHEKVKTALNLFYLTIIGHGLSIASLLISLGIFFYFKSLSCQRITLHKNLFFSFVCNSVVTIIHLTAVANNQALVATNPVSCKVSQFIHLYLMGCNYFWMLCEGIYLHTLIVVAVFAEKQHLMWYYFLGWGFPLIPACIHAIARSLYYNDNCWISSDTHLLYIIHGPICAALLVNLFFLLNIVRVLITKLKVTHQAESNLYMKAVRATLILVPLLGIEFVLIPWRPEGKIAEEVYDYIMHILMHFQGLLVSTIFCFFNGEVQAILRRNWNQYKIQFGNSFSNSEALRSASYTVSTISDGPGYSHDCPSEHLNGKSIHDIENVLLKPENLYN
# Sequence of CGRP1 receptor (CRLR/RAMP1 complex) of human neuroblastoma SK-N-MC cells (O60894 27-148, chain 2 of 2): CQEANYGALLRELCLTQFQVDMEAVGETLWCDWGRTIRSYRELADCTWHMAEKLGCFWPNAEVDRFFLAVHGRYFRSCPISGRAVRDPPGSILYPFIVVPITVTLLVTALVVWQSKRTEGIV
row,IC50,Binder
1,2.75 nM,Ac-WVTHRLAGLLSASGGVVRCNFVPTDVGPFAF-NH2 [SEQ ID NO 772]
2,0.51 nM,Ac-WVTHRLAGLLSRSGGVKRNNFVPTDVGPFAF-NH2 [SEQ ID NO 823]
3,5.24 nM,Ac-WVTHQLAGLLSQSGGVVRK(20 kDa MeO‑PEG)NFVPTDVGPFAF-NH2 [SEQ ID NO 817]
4,3.28 nM,"{13C1,2Ac}-WVTHRLAGLLSRSGGVVRK(20 kDa MeO‑PEG)NFVPTDVGPFA[15N‑F]-NH2 [SEQ ID NO 803]"
5,228 nM,Ac-WVTHRLAGLAS[Cit]SGGVVRK(MeO‑PEG 20 kDa)NFVPTDVGPFAF-NH2 [SEQ ID NO 851]
6,0.19 nM,Ac-WVTHRLAGLLSRSGGVVRC(trivalent 20 kDa PEG)NFVPTDVGPFAF-NH2 (also: trivalent PEG joins three peptide copies) [SEQ ID NO 781]
7,0.17 nM,Ac-WVTHRLAGLLSRSGGVVRC(20 kDa branched MeO‑PEG2)NFVPTDVGPFAF-NH2 [SEQ ID NO 770]
8,18 nM,Ac-WVTHRLAGLLSRPGGVVRK(20 kDa MeO‑PEG)NFVPTDVGPFAF-NH2 [SEQ ID NO 855]
9,0.08 nM,Ac-WVTHRLAGLLSRSGGVVRC(tetravalent 20 kDa PEG)NFVPTDVGPFAF-NH2 (also: tetravalent PEG joins four peptide copies) [SEQ ID NO 782]
10,0.47 nM,Ac-WVTHRLAGLLSQSGGVVRKNFVPTDVGPFAF-NH2 [SEQ ID NO 814]
11,2.1 nM,WVTHXLAGLLSXSGGVVRKNFVPTDVGPFAF (Ac-WVTH[hArg]LAGLLS[hArg]SGGVVRKNFVPTDVGPFAF-amide) [SEQ ID NO 784]
12,0.37 nM,WVTHXLAGLLSXSGGVVRKNFVPTDVGPFAF (Ac-WVTH[hArg]LAGLLS[hArg]SGGVVRK^(20 kDa MeO-PEG)NFVPTDVGPFAF-amide) [SEQ ID NO 785]
13,0.57 nM,WVTHRLAGLLSXSGGVVRKNFVPTDVGPFAF (Ac-WVTHRLAGLLS[hArg]SGGVVRKNFVPTDVGPFAF-amide) [SEQ ID NO 786]
14,2.08 nM,WVTHXLAGLLSRSGGVVRKNFVPTDVGPFAF (Ac-WVTH[Cit]LAGLLSRSGGV VRK^(20 kDa MeO-PEG)NFVPTDVGPFAF-amide) [SEQ ID NO 799]
15,0.36 nM,WVTHXLAGLLSRSGGVVRKNFVPTDVGPFAF (Ac-WVTH[hArg]LAGLLSRSGGVVRK^(20 kDa MeO-PEG)NFVPTDVGPFAF-amide) [SEQ ID NO 789]
16,0.44 nM,WVTHXLAGLLSRSGGVVRKNFVPTDVGPFAF (Ac-WVTH[hArg]LAGLLSRSGGVVRKNFVPTDVGPFAF-amide) [SEQ ID NO 788]
17,0.58 nM,WVTHRLAGLLSXSGGVVRKNFVPTDVGPFAF (Ac-WVTHRLAGLLS[Cit]SGG VVRKNFVPTDVGPFAF-amide) [SEQ ID NO 796]
18,1.7 nM,WVTHXLAGLLSXSGGVVRKNFVPTDVGPFAF (Ac-WVTH[Cit]LAGLLS[Cit]SGG VVRKNFVPTDVGPFAF-amide) [SEQ ID NO 790]
19,0.33 nM,WVTHRLAGLLSXSGGVVRKNFVPTDVGPFAF (Ac-WVTHRLAGLLS[hArg]SGGVVRK^(20 kDa MeO-PEG)NFVPTDVGPFAF-amide) [SEQ ID NO 787]
20,0.57 nM,WVTHXLAGLLSRSGGVVRKNFVPTDVGPFAF (Ac-WVTH[Cit]LAGLLSRSGGV VRKNFVPTDVGPFAF-amide) [SEQ ID NO 798]

row,IC50,Binder
1,0.96 nM,WVTHRLAGLLSXSGGVVRKNFVPTDVGPFAF (Ac-WVTHRLAGLLS[Cit]SGG VVRK^(20 kDa MeO-PEG)NFVPTDVGPFAF-amide) [SEQ ID NO 797]
2,1.64 nM,WVTHRLAGLLSRSGGVVRNCFVPTDVGPFAF (Ac-WVTHRLAGLLSRSGGVVRNC^(20 kDa MeO-PEG)FVPTDVGPFAF-amide) [SEQ ID NO 801]
3,0.53 nM,Ac-WVTHQLAGLLSQSGGVVRKNFVPTDVGPFAF-NH2 [SEQ ID NO 816]
4,2.22 nM,B1
5,0.36 nM,Ac-WVTHRLAGLLSRSGGVCRNNFVPTDVGPFAF-NH2 [SEQ ID NO 820]
6,0.35 nM,B2
7,0.98 nM,Ac-WVTHRLAGLLSRSGGVK(20 kDa MeO‑PEG)RNNFVPTDVGPFAF-NH2 [SEQ ID NO 824]
8,23.4 nM,Ac-WVTH[Cit]LAGLAS[Cit]SGGVVRKNFVPTDVGPFAF-NH2 [SEQ ID NO 852]
9,1.85 nM,B3
10,0.16 nM,Ac-WVTHRLAGLLSRSGGVC(20 kDa MeO‑PEG)RNNFVPTDVGPFAF-NH2 [SEQ ID NO 821]
11,1.4 nM,Ac-WVTHRLAGLLSRSGGVVRC(octavalent 20 kDa PEG)NFVPTDVGPFAF-NH2 (also: eight peptides linked via Cys to one octavalent 20 kDa PEG) [SEQ ID NO 783]
12,6.2 nM,Ac-WVTHRLAGLLSASGGVVRC(20 kDa MeO‑PEG)NFVPTDVGPFAF-NH2 [SEQ ID NO 773]
13,0.3 nM,Ac-WVTHRLAGLLSRSGGVVRC(20 kDa NEM‑PEG)NFVPTDVGPFAF-NH2 [SEQ ID NO 771]
14,0.59 nM,B4
15,> 1000 nM,Ac-WVTH[Cit]LAGLAS[Cit]SGGVVRK(20 kDa MeO‑PEG)NFVPTDVGPFAF-NH2 [SEQ ID NO 853]
16,4.69 nM,Ac-WVTHRLAGLLSQSGGVVRC(20 kDa MeO‑PEG)NFVPTDVGPFAF-NH2 [SEQ ID NO 775]
17,19.4 nM,Ac-WVTHRLAGLLS[dR]SGGVVRC(MeO‑PEG 20 kDa)NFVPTDVGPFAF-NH2 [SEQ ID NO 777]
18,0.46 nM,Ac-WVTHRLAGLLSQSGGVVRK(20 kDa MeO‑PEG)NFVPTDVGPFAF-NH2 [SEQ ID NO 815]
19,1.27 nM,Ac-WVTHRLAGLLSRPGGVVRKNFVPTDVGPFAF-NH2 [SEQ ID NO 854]
20,7.18 nM,Ac-WVTHQLAGLLSQSGGVVRK(20 kDa MeO‑PEG)NFVPTDVGPFAF-NH2 [SEQ ID NO 818]

# Reference: patent publication US20080020978A1 (Amgen, published 2008)
